Data as given in patent US9618524B2, “Method, composition, isolation and identification of a plaque particle and related biomarker” (Plaxgen Inc., priority 2012, dated 2017).

Tests used:
Test in all cases: Mass spectroscopy proteomics, semi-quantitative binding affinity of serum proteins (plaqueproteome, Table 2)
Conditions in all cases: higher number = stronger affinity
[1] = biological target: T1, Abeta-42 plaque particles (Homo sapiens, UniProt P05067)
T1 construct: Abeta 1-42
Outline: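 AD patient serum or plasma (50% in PBS) was incubated with Abeta-42 aggregates (30 μg) for 1 h at 37 °C, then stained with Thioflavin S for 30 min. Labeled particles were FACS-sorted, trypsin/Lys-C digested overnight and analyzed by MS/MS. Sequest searched human UniProt; Scaffold/Protein Prophet validated the identifications.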

[2] = system: High Density cholesterol (Chl Large) plaque particles; parameters: species or system human
Outline: (§1)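 Atherosclerotic plasma/serum (50% in PBS) + 30 μg cholesterol aggregates, 1 hr 37° C; FACS gates split low- vs high-density particles. Acetone precipitation, urea/ProteaseMAX, acrylamide alkylation, overnight Trypsin/Lys C at 37° C; Sequest search, Scaffold/Protein Prophet validation.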

[3] = system: Low density cholesterol (Chl small) plaque particles; parameters: species or system human
Outline: as §1

[4] = biological target: T2, alpha-synuclein plaque particles (Homo sapiens, UniProt P37840)
T2 construct: 140 amino acids polypeptide
Outline: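 AD-subject plasma or serum (800 μL of 50%) mixed with 30 μg preformed alpha-synuclein aggregates for 1 h at 37 °C; Thioflavin S-positive particles isolated by flow sorting. After reduction, acrylamide alkylation and overnight tryptic digestion, serum proteins identified by MS/MS with Sequest and Scaffold.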

Tau plaque particles = system: Tau plaque particles; parameters: species or system human
Outline: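 Synthetic Tau-74 and Tau-275 peptides (1 mg/mL PBS, 37° C, 2 h) aggregated; 30 μg aggregates incubated with 50% serum/plasma 1 h at 37° C, stained with Thioflavin S, and plaque particles sorted by flow cytometry. Bound proteins trypsin-digested and identified by MS/MS against human UniProt.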

Molecule | Semi-quantitative analysis of proteins binding to different plaque particles: Abeta-42 [1] | Semi-quantitative analysis of proteins binding to different plaque particles: Chl Large [2] | Semi-quantitative analysis of proteins binding to different plaque particles: Chl small [3] | Semi-quantitative analysis of proteins binding to different plaque particles: Synuclein [4] | Semi-quantitative analysis of proteins binding to different plaque particles: Tau (Tau plaque particles)
Cluster of Ig alpha-1 chain C region (protein, UniProt P01876 1-398, looked up) Immunoglobulin heavy constant …: ASPTSPKVFPLSLCSTQPDGNVVIACLVQGFFPQEPLSVTWSESGQGVTARNFPPSQDASGDLYTTSSQLTLPATQCLAGKSVTCHVKHYTNPSQDVTVPCPVPSTPPTPSPSTPPTPSPSCCHPRLSLHRPALEDLLLGSEANLTCTLTGLRDASGVTFTWTPSSGKSAVQGPPERDLCGCYSVSSVLPGCAEPWNHGKTFTCTAAYPESKTPLTATLSKSGNTFRPEVHLLPPPSEELALNELVTLTCLARGFSPKDVLVRWLQGSQELPREKYLTWASRQEPSQGTTTFAVTSILRVAAEDWKKGDTFSCMVGHEALPLAFTQKTIDRLADWQMPPPYVVLDLPQETLEEETPGANLWPTTITFLTLFLLSLFYSTALTVTSVRGPSGNREGPQY | 9 | 10 | 9 | 12 | 12
Cluster of Ig mu chain C region (protein, UniProt P01871 1-474, looked up) Immunoglobulin heavy constant …: GSASAPTLFPLVSCENSPSDTSSVAVGCLAQDFLPDSITFSWKYKNNSDISSTRGFPSVLRGGKYAATSQVLLPSKDVMQGTDEHVVCKVQHPNGNKEKNVPLPVIAELPPKVSVFVPPRDGFFGNPRKSKLICQATGFSPRQIQVSWLREGKQVGSGVTTDQVQAEAKESGPTTYKVTSTLTIKESDWLGQSMFTCRVDHRGLTFQQNASSMCVPDQDTAIRVFAIPPSFASIFLTKSTKLTCLVTDLTTYDSVTISWTRQNGEAVKTHTNISESHPNATFSAVGEASICEDDWNSGERFTCTVTHTDLPSPLKQTISRPKGVALHRPDVYLLPPAREQLNLRESATITCLVTGFSPADVFVQWMQRGQPLSPEKYVTSAPMPEPQAPGRYFAHSILTVSEEEWNTGETYTCVVAHEALPNRVTERTVDKSTEGEVSADEEGFENLWATASTFIVLFLLSLFYSTTVTLFKVK | 5 | 10 | 10 | 9 | 11
Ig mu chain C region (protein) GSASAPTLFPLVSCENSPSDTSSVAVGCLAQDFLPDSITFSWKYKNNSDISSTRGFPSVLRGGKYAATSQVLLPSKDVMQGTDEHVVCKVQHPNGNKEKNVPLPVIAELPPKVSVFVPPRDGFFGNPRKSKLICQATGFSPRQIQVSWLREGKQVGSGVTTDQVQAEAKESGPTTYKVTSTLTIKESDWLGQSMFTCRVDHRGLTFQQNASSMCVPDQDTAIRVFAIPPSFASIFLTKSTKLTCLVTDLTTYDSVTISWTRQNGEAVKTHTNISESHPNATFSAVGEASICEDDWNSGERFTCTVTHTDLPSPLKQTISRPKGVALHRPDVYLLPPAREQLNLRESATITCLVTGFSPADVFVQWMQRGQPLSPEKYVTSAPMPEPQAPGRYFAHSILTVSEEEWNTGETYTCVVAHEALPNRVTERTVDKSTGKPTLYNVSLVMSDTAGTCY | 5 | 10 | 10 | 8 | 10
Ig alpha-2 chain C region (protein) ASPTSPKVFPLSLDSTPQDGNVVVACLVQGFFPQEPLSVTWSESGQNVTARNFPPSQDASGDLYTTSSQLTLPATQCPDGKSVTCHVKHYTNSSQDVTVPCRVPPPPPCCHPRLSLHRPALEDLLLGSEANLTCTLTGLRDASGATFTWTPSSGKSAVQGPPERDLCGCYSVSSVLPGCAQPWNHGETFTCTAAHPELKTPLTANITKSGNTFRPEVHLLPPPSEELALNELVTLTCLARGFSPKDVLVRWLQGSQELPREKYLTWASRQEPSQGTTTYAVTSILRVAAEDWKKGETFSCMVGHEALPLAFTQKTIDRMAGKPTHINVSVVMAEADGTCY | 7 | 9 | 6 | 10 | 10
Ceruloplasmin (protein) KEKHYYIGIIETTWDYASDHGEKKLISVDTEHSNIYLQNGPDRIGRLYKKALYLQYTDETFRTTIEKPVWLGFLGPIIKAETGDKVYVHLKNLASRPYTFHSHGITYYKEHEGAIYPDNTTDFQRADDKVYPGEQYTYMLLATEEQSPGEGDGNCVTRIYHSHIDAPKDIASGLIGPLIICKKDSLDKEKEKHIDREFVVMFSVVDENFSWYLEDNIKTYCSEPEKVDKDNEDFQESNRMYSVNGYTFGSLPGLSMCAEDRVKWYLFGMGNEVDVHAAFFHGQALTNKNYRIDTINLFPATLFDAYMVAQNPGEWMLSCQNLNHLKAGLQAFFQVQECNKSSSKDNIRGKHVRHYYIAAEEIIWNYAPSGIDIFTKENLTAPGSDSAVFFEQGTTRIGGSYKKLVYREYTDASFTNRKERGPEEEHLGILGPVIWAEVGDTIRVTFHNKGAYPLSIEPIGVRFNKNNEGTYYSPNYNPQSRSVPPSASHVAPTETFTYEWTVPKEVGPTNADPVCLAKMYYSAVEPTKDIFTGLIGPMKICKKGSLHANGRQKDVDKEFYLFPTVFDENESLLLEDNIRMFTTAPDQVDKEDEDFQESNKMHSMNGFMYGNQPGLTMCKGDSVVWYLFSAGNEADVHGIYFSGNTYLWRGERRDTANLFPQTSLTLHMWPDTEGTFNVECLTTDHYTGGMKQKYTVNQCRRQSEDSTFYLGERTYYIAAVEVEWDYSPQREWEKELHHLQEQNVSNAFLDKGEFYIGSKYKKVVYRQYTDSTFRVPVERKAEEEHLGILGPQLHADVGDKVKIIFKNMATRPYSIHAHGVQTESSTVTPTLPGETLTYVWKIPERSGAGTEDSACIPWAYYSTVDQVKDLYSGLIGPLIVCRRPYLKVFNPRRKLEFALLFLVFDENESWYLDDNIKTYSDHPEKVNKDDEEFIESNKMHAINGRMFGNLQGLTMHVGDEVNWYLMGMGNEIDLHTVHFHGHSFQYKHRGVYSSDVFDIFPGTYQTLEMFPRTPGIWLLHCHVTDHIHAGMETTYTVLQNEDTKSG | 9 | 20 | 22 | 21 | 20
Vitamin D-binding protein (protein) LERGRDYEKNKVCKEFSHLGKEDFTSLSLVLYSRKFPSGTFEQVSQLVKEVVSLTEACCAEGADPDCYDTRTSALSAKSCESNSPFPVHPGTAECCTKEGLERKLCMAALKHQPQEFPTYVEPTNDEICEAFRKDPKEYANQFMWEYSTNYGQAPLSLLVSYTKSYLSMVGSCCTSASPTVCFLKERLQLKHLSLLTTLSNRVCSQYAAYGEKKSRLSNLIKLAQKVPTADLEDVLPLAEDITNILSKCCESASEDCMAKELPEHTVKLCDNLSTKNSKFEDCCQEKTAMDVFVCTYFMPAAQLPELPDVELPTNKDVCDPGNTKVMDKYTFELSRRTHLPEVFLSKVLEPTLKSLGECCDVEDSTTCFNAKGPLLKKELSSFIDKGQELCADYSENTFTEYKKKLAERLKAKLPDATPTELAKLVNKHSDFASNCCSINSPPLYCDSEIDAELKNIL | 12 | 21 | 18 | 17 | 19
Inter-alpha-trypsin inhibitor heavy chain H2 (protein) SLPGESEEMMEEVDQVTLYSYKVQSTITSRMATTMIQSKVVNNSPQPQNVVFDVQIPKGAFISNFSMTVDGKTFRSSIKEKTVGRALYAQARAKGKTAGLVRSSALDMENFRTEVNVLPGAKVQFELHYQEVKWRKLGSYEHRIYLQPGRLAKHLEVDVWVIEPQGLRFLHVPDTFEGHFDGVPVISKGQQKAHVSFKPTVAQQRICPNCRETAVDGELVVLYDVKREEKAGELEVFNGYFVHFFAPDNLDPIPKNILFVIDVSGSMWGVKMKQTVEAMKTILDDLRAEDHFSVIDFNQNIRTWRNDLISATKTQVADAKRYIEKIQPSGGTNINEALLRAIFILNEANNLGLLDPNSVSLIILVSDGDPTVGELKLSKIQKNVKENIQDNISLFSLGMGFDVDYDFLKRLSNENHGIAQRIYGNQDTSSQLKKFYNQVSTPLLRNVQFNYPHTSVTDVTQNNFHNYFGGSEIVVAGKFDPAKLDQIESVITATSANTQLVLETLAQMDDLQDFLSKDKHADPDFTRKLWAYLTINQLLAERSLAPTAAAKRRITRSILQMSLDHHIVTPLTSLVIENEAGDERMLADAPPQDPSCCSGALYYGSKVVPDSTPSWANPSPTPVISMLAQGSQVLESTPPPHVMRVEND | 9 | 10 | 12 | 13 | 14
